± gives the uncertainty stated by the source.
Test: self-splicing fitness, log relative to wild type (ln ratio); higher = more splicing; Tetrahymena group I intron in knt gene, E. coli kanamycin selection, DiMSum; sequences stand for … in CUCUCU…GGAGGGAAAAGUUAUCAGGCAUGCACCUGGUAGCUAGUCUUUAAACCAAUAGAUUGCAUCGGUUUAAAAGGCAAGACCGUCAAAUUGCGGGAAAGGGGUCAACAGCCGUUCAGUACCAAGUCUCAGGGGAAACUUUGAGAUGGCCUUGCAAAGGGUAUGGUAAUAAGCUGACGGACAUGGUCCUAACCACGCAGCCAAGUCCUAAGUCAACAGAUCUUCUGUUGAUAUGGAUGCAGUUCACAGACUAAAUGUCGGUCGGGGAAGAUGUAUUCUUCUCAUAAGAUAUAGUCGGACCUCUCCUUAAUGGGAGCUAGCGGAUGAAGUGAUGCAACACUGGAGCCGCUGGGAACUAAUUUGUAUGCGAAAGUAUAUUGAUUAGUUUUGGAGUACUCGUGGUCG
In short: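 Colonies from six replicate transformations of E. coli BL21(DE3) were pooled and amplicon-sequenced on an Illumina HiSeq 2500. The library placed an intron with all eight P1ex-region nucleotides randomised inside the knt kanamycin-resistance gene on pET-22b(+), and cells grew overnight at 37°C or 30°C on LB agar with or without 25 μg/mL kanamycin (plus 100 μg/mL carbenicillin, 50 μM IPTG, 0.2% rhamnose). Fitness is the DiMSum error-weighted combination of wild-type-normalised replicate fold changes, kanamycin versus none.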

Sequence	self-splicing fitness (ln) (30 °C)	self-splicing fitness (ln) (37 °C)
UGCAAGCAAUAUUACGCUCC	-0.565 ± 0.2	-1.37 ± 0.34
CAAUAGCAAUAUUACGGGGG	-2.64 ± 0.19	-2.01 ± 0.15
UCAAAGCAAUAUUACGGCUA	-0.599 ± 0.1	-1.31 ± 0.13
GGGGAGCAAUAUUACGGUCU	-3.73 ± 0.4	-0.856 ± 0.31
GGUAAGCAAUAUUACGAGAG	-3.7 ± 0.4	-3.25 ± 0.25
AGGAAGCAAUAUUACGGGGU	-3.19 ± 0.21	-3.13 ± 0.43
UGAAAGCAAUAUUACGUGCG	-0.35 ± 0.065	-0.395 ± 0.073
CAUUAGCAAUAUUACGUCCG	-0.0564 ± 0.12	-0.142 ± 0.15
GCCGAGCAAUAUUACGCGAC	-2.44 ± 0.21	-2.26 ± 0.35
AUGCAGCAAUAUUACGUUGC	-4.01 ± 0.18	-2.25 ± 0.24
CAUCAGCAAUAUUACGCGCU	–	-1.87 ± 0.29
UUACAGCAAUAUUACGUUUU	-3.4 ± 0.11	-0.802 ± 0.092
ACCCAGCAAUAUUACGGUAC	-2.51 ± 0.081	-0.741 ± 0.078
UAAAAGCAAUAUUACGGUAU	-3.74 ± 0.23	-1.85 ± 0.21
CCCCAGCAAUAUUACGGAUA	-3.92 ± 0.24	-2.65 ± 0.16
CAUAAGCAAUAUUACGCCAU	-1.36 ± 0.15	-2.6 ± 0.34
UGGAAGCAAUAUUACGUUCA	-0.654 ± 0.069	0.00518 ± 0.092
CUUUAGCAAUAUUACGAGAC	-1.83 ± 0.36	-2.9 ± 0.4
ACGGAGCAAUAUUACGGGGG	–	-1.58 ± 0.29
GGGCAGCAAUAUUACGGGCC	-2.96 ± 0.2	-2.66 ± 0.31
UAGAAGCAAUAUUACGGUUU	-3.09 ± 0.17	-2.28 ± 0.16
GGACAGCAAUAUUACGGAGC	-0.749 ± 0.089	-0.621 ± 0.09
CUGCAGCAAUAUUACGUCCU	-3.82 ± 0.37	-1.31 ± 0.31
GAUGAGCAAUAUUACGAGGG	–	-2.15 ± 0.22
AAUGAGCAAUAUUACGGGGU	-2.97 ± 0.18	-2.29 ± 0.21
CAAGAGCAAUAUUACGCAGG	-2.62 ± 0.13	-2 ± 0.17

Sequence	self-splicing fitness (ln) (30 °C)	self-splicing fitness (ln) (37 °C)
GUGCAGCAAUAUUACGCCAU	-2.23 ± 0.16	-2.62 ± 0.23
CGUCAGCAAUAUUACGGGUU	-3.44 ± 0.17	-2.56 ± 0.15
GCAUAGCAAUAUUACGCCCA	-2.41 ± 0.19	-0.965 ± 0.16
CAUCAGCAAUAUUACGUAAU	-2.56 ± 0.09	-1.4 ± 0.1
AUUCAGCAAUAUUACGAUUC	-1.62 ± 0.059	-0.407 ± 0.077
ACCGAGCAAUAUUACGAGUA	-3.23 ± 0.27	-3.5 ± 0.35
GAGAAGCAAUAUUACGCUAA	-2.47 ± 0.3	-0.911 ± 0.24
UUUAAGCAAUAUUACGUAGG	-0.802 ± 0.058	-0.287 ± 0.086
CUCUAGCAAUAUUACGGUCU	-3.26 ± 0.2	-3.06 ± 0.23
AAGCAGCAAUAUUACGCCAU	-2.13 ± 0.19	-1.69 ± 0.28
AAAAAGCAAUAUUACGUAGA	-2.21 ± 0.062	-1.33 ± 0.065
CCACAGCAAUAUUACGAUCG	-0.326 ± 0.06	0.703 ± 0.077
GGUUAGCAAUAUUACGGCGA	-0.237 ± 0.09	0.106 ± 0.086
ACAUAGCAAUAUUACGGUCC	-1.91 ± 0.087	-1.77 ± 0.11
AGGGAGCAAUAUUACGAGCA	-3.26 ± 0.25	-2.64 ± 0.21
UAGCAGCAAUAUUACGACGG	-0.73 ± 0.09	-0.313 ± 0.12
UAGUAGCAAUAUUACGGUGC	-3.13 ± 0.17	-2.39 ± 0.19
CCAGAGCAAUAUUACGAGUG	-1.2 ± 0.073	-0.146 ± 0.092
GCGUAGCAAUAUUACGCCAU	-2.97 ± 0.31	-2.93 ± 0.47
CUUCAGCAAUAUUACGAAUA	-2.77 ± 0.14	-2.09 ± 0.13
UCCCAGCAAUAUUACGGGCC	-3.03 ± 0.22	-1.7 ± 0.18
ACUUAGCAAUAUUACGGGGU	-2.71 ± 0.16	-2.73 ± 0.27
AAGCAGCAAUAUUACGCUGA	-3.07 ± 0.11	-1.98 ± 0.11
UACCAGCAAUAUUACGUGCA	-0.43 ± 0.065	0.246 ± 0.09
UCUGAGCAAUAUUACGUCCU	-1.81 ± 0.39	–
CGAAAGCAAUAUUACGCGGU	-2.88 ± 0.17	-2.41 ± 0.18

Sequence	self-splicing fitness (ln) (30 °C)	self-splicing fitness (ln) (37 °C)
AACGAGCAAUAUUACGAGGG	-3.03 ± 0.36	-2.35 ± 0.29
GUCUAGCAAUAUUACGGCUG	-2.04 ± 0.18	-1.91 ± 0.21
AUACAGCAAUAUUACGUCGC	-2.42 ± 0.13	-3.06 ± 0.26
UACUAGCAAUAUUACGAAAA	-2.6 ± 0.35	-2.26 ± 0.42
CCAUAGCAAUAUUACGAUGA	-0.628 ± 0.092	-0.23 ± 0.1
GCCAAGCAAUAUUACGGCGG	-3.3 ± 0.14	-1.84 ± 0.16
UACUAGCAAUAUUACGUCUU	-2.11 ± 0.13	-1.27 ± 0.14
UCAGAGCAAUAUUACGGGGC	-3.3 ± 0.26	-2.42 ± 0.41
UUCAAGCAAUAUUACGCAAU	-2.21 ± 0.19	-1.99 ± 0.21
AUUUAGCAAUAUUACGACAG	-2.19 ± 0.24	0.257 ± 0.26
AGGAAGCAAUAUUACGUCAA	-3.36 ± 0.22	-3.71 ± 0.27
GUAAAGCAAUAUUACGCCGC	-2.48 ± 0.3	-1.92 ± 0.35
GGCUAGCAAUAUUACGUCGG	-3.95 ± 0.29	-2.61 ± 0.26
UACCAGCAAUAUUACGGACA	-0.227 ± 0.061	0.423 ± 0.076
UCCCAGCAAUAUUACGUGGA	-3.08 ± 0.14	-1.95 ± 0.15
CUGGAGCAAUAUUACGUACU	–	-2.19 ± 0.43
UGUCAGCAAUAUUACGACAA	-1.02 ± 0.097	-0.118 ± 0.1
ACCCAGCAAUAUUACGUUCG	-3.74 ± 0.14	-1.26 ± 0.088
GCAUAGCAAUAUUACGAUAC	-1.47 ± 0.13	-0.915 ± 0.14
GUCCAGCAAUAUUACGACAA	-1.57 ± 0.14	-0.902 ± 0.11
UCUCAGCAAUAUUACGGAUA	-1.12 ± 0.16	0.0308 ± 0.15
GCGCAGCAAUAUUACGAUCA	-1.5 ± 0.14	-0.594 ± 0.15
UAAGAGCAAUAUUACGAAUU	-3.74 ± 0.43	-1.84 ± 0.49
CACAAGCAAUAUUACGAAGU	-3.68 ± 0.16	-1.43 ± 0.12
AGGCAGCAAUAUUACGCUCU	-2.31 ± 0.34	–
GACGAGCAAUAUUACGUAGC	-4.54 ± 0.41	-2.33 ± 0.25

— the supplement of paper PMC7877785
